Assay results: patent US20260265696A1, “HUMAN IPSC DERIVED AMELOBLASTS AND USES THEREOF” (UNIVERSITY OF WASHINGTON, priority 2021, published 2026)

Test system: hiPSCs (WTC-11) differentiating to ameloblasts (iAM)
Test: AMBN expression (QRT-PCR) in hiPSC-derived ameloblast (iAM) differentiation, day 10 to day 16, factors removed or added
Assay type: cell-based, human
Procedure: FIGS. 7A-7E: (FIG. 7A) Schematic of the 16-day differentiation protocol produced, which targets the identified signaling pathways utilizing growth factors and small molecules to transition through the ameloblast developmental trajectory. […] Each study was performed in triplicate, with error bars representing SEM. (FIG. 7C) The efficiency of each pathway activated in the differentiation from day 10 to day 16 were assessed by removing each agonist one at a time or adding FGFR2 mini binder to inhibit the FGFR2 pathway. AMBN expression was assessed in QRT-PCR, and each condition was performed in triplicate. Significance was determined by unpaired Student's t-test; ***p<0.001; ****p<0.0001; Graph error bars are the means±SEM.
To dissect which pathways were essential for the differentiation from day 10 to day 16, the process of elimination was used (FIG. 7C). […] It was hypothesized that the cells in culture secrete enough FGF ligands to saturate the receptors, and any exogenous ligands would have minimal effects. To test this hypothesis, a computationally designed protein was used, FGFR2 mini-binder (FGFR-mb), that specifically binds and inhibits the activity of the FGFR2 (Cao et al., 2022). […]
RNA was extracted using Trizol (Life Technologies) according to manufacturer's instructions. RNA samples were treated with Turbo DNase (Thermo Fisher Scientific) and quantified using Nanodrop ND-1000. […]

Row | Molecule | expression of AMBN on adding FGFR2 mini-binder (50 nM FGFR-mb added at day 14, harvested at day 16) | expression of AMBN when the factor is removed (factor removed independently from differentiation day 10 to day 16, compared to when all factors are present)
1 | FGFR2-binder: computationally designed protein that specifically binds and inhibits the activity of the FGFR2; binding sequence SEQ ID NO. 1 (protein) MGDRRKEMDKVYRTAYKRITSTPDKEKRKEVVKEATEQLRRIAKDEEEKKKAAYMISFLKTLGLEHHHHHH | almost totally abolished | –
2 | BMP4: bone morphogenic protein-4 (protein, UniProt P12644 293-408, looked up) Bone morphogenetic protein 4: SPKHHSQRARKKNKNCRRHSLYVDFSDVGWNDWIVAPPGYQAFYCHGDCPFPLADHLNSTNHAIVQTLVNSVNSSIPKACCVPTELSAISMLYLDEYDKVVLKNYQEMVVEGCGCR | – | significantly reduced to less than half
